Self-cleavage data for 167 variants are collected here from the RNAGym collection of RNA variant scans (doi:10.7554/elife.90254).

B1: LINE1-mini (parent)
chain: GGCAGAGCUCAACACAGCGUGGCAAAGUGGCUGUGGCUAGACUGCC

The variants in the data set derive from B1. The data set is described as follows: self-cleavage, relative activity (ratio to wild type); higher = more cleavage; in vitro, sequencing; the parent is a self-cleaving ribozyme.
With C13U G17C, the self-cleavage was found to be 0.11. The figure for C13U G17U is 0.12; for A14G A24C it is 0.27. Next, A14G A24U: 0.43; A14G A24G: 0.76; C13G U20C: 0.1. Take C13G U20A: the self-cleavage came to 0.13. The figure for C13G U20G is 0.13.

Take A14G C15G: the self-cleavage is 0.08. The figure for A14G C15A is 0.08; for A14G C15U it is 0.11. The figure for A14C A26C is 0.16.

Regarding A14C A26G, the self-cleavage was found to be 0.06. Next, A14C A26U: 0.09; C13U G33C: 0.06. The figure for C13U G33U is 0.06; for C13U G33A it is 0.07; for A14G G17A it is 0.17. Next, A14G G17C: 0.09; A14G G17U: 0.09; A14G G30A: 0.28. With A14G G30C, the self-cleavage stood at 0.24. Consider A14G G30U, for which the self-cleavage came out at 0.34. A14G G27C: the self-cleavage came out at 0.61. The figure for A14G G27A is 0.83; for A14G G27U it is 0.42.

For the variant A14G G33C, the self-cleavage was determined as 0.03. Next, A14G G33A: 0.07. Next, A14G G33U: 0.16; A14C A25G: 0.07; A14C A25C: 0.07. Next, A14C A25U: 0.09. For the variant A14G A26G, the self-cleavage was 0.43.

A14G A26U: the self-cleavage was 0.59. In the case of A14G A26C, the self-cleavage came to 0.67. The figure for A14C G27C is 0.07. With A14C G27U, the self-cleavage is 0.09. Next, A14C G27A: 0.09. The figure for A14C G33U is 0.05; for A14C G33C it is 0.03; for A14C G33A it is 0.06.

As to C13U U34G, the self-cleavage stood at 0.05. Take C13U U34A: the self-cleavage is 0.09. Next, C13U U34C: 0.14; C13G G35U: 0.85.

Consider C13G G35A, for which the self-cleavage came out at 0.07. Next, C13G G35C: 0.81; A14G C45G: 0.2; A14G C45A: 0.38.

As to A14G C45U, the self-cleavage amounted to 0.63. The figure for C13U G30U is 0.15. The figure for C13U G30A is 0.15; for C13U G30C it is 0.09; for C13G G36U it is 0.1. As to C13G G36A, the self-cleavage came to 0.29.

As for C13G G36C, the self-cleavage worked out at 0.08. Regarding A14C A24G, the self-cleavage amounted to 0.07. The figure for A14C A24U is 0.07; for A14C A24C it is 0.11. Next, A14C G19C: 0.03; A14C G19A: 0.1. Next, A14C G19U: 0.1; A14G G36U: 0.12. For the variant A14G G36C, the self-cleavage was found to be 0.07. Next, A14G G36A: 0.26; C13U A25U: 0.29. With C13U A25G, the self-cleavage came out at 0.07. Next, C13U A25C: 0.13; C13U U38G: 0.02; C13U U38C: 0.1. Take C13U U38A: the self-cleavage was determined as 0.04. Next, A14C C31A: 0.07.

Turning to A14C C31G, the self-cleavage turned out to be 0.03.

Consider A14C C31U, for which the self-cleavage was 0.02. The figure for A14C G44A is 0.07. The figure for A14C G44U is 0.07. For the variant A14C G44C, the self-cleavage was 0.13. Next, A14G C23A: 0.53; A14G C23G: 0.45; A14G C23U: 0.85. Next, C13G G40C: 0.14; C13G G40A: 0.13.

As to C13G G40U, the self-cleavage was determined as 0.08. Next, C13U C18G: 0.05.

For the variant C13U C18U, the self-cleavage stood at 0.12. The figure for C13U C18A is 0.07; for C13U C46A it is 0.22. The figure for C13U C46U is 0.3; for C13U C46G it is 0.09; for A14G C46U it is 0.26. Consider A14G C46A, for which the self-cleavage is 0.2. The figure for A14G C46G is 0.14; for A14C U34C it is 0.07.

In the case of A14C U34G, the self-cleavage is 0.26.

Consider A14C U34A, for which the self-cleavage came out at 0.07. In the case of C13U U20C, the self-cleavage was determined as 0.09. Next, C13U U20A: 0.17; C13U U20G: 0.1.

A14G C37A: the self-cleavage was 0.07. On to A14G C37G, for which the self-cleavage came to 0.04. Next, A14G C37U: 0.19; A14G: 0.58; A14C: 0.12. The figure for A14U is 0.45.

On to A14G G22A, for which the self-cleavage worked out at 0.34. Next, A14G G22U: 0.98; A14G G22C: 0.31; A14C C42U: 0.07.

In the case of A14C C42A, the self-cleavage came to 0.07. Next, A14C C42G: 0.07. The figure for A14C C18U is 0.07; for A14C C18G it is 0.05; for A14C C18A it is 0.05. The figure for A14C G29A is 0.29; for A14C G29U it is 0.13.

Take A14C G29C: the self-cleavage came to 0.04. Next, C13U C42G: 0.08; C13U C42U: 0.09. Next, C13U C42A: 0.09; C13U A39C: 0.13. The figure for C13U A39G is 0.11; for C13U A39U it is 0.08. Regarding C13U A41C, the self-cleavage amounted to 0.06. Next, C13U A41G: 0.06; C13U A41U: 0.15; A14C C37U: 0.02. Next, A14C C37G: 0.11. The figure for A14C C37A is 0.08; for C13G U32A it is 0.09; for C13G U32G it is 0.05. Turning to C13G U32C, the self-cleavage amounted to 0.07. On to C13G U43C, for which the self-cleavage is 0.02. Next, C13G U43G: 0.66; C13G U43A: 0.11. The figure for A14C A39C is 0.04; for A14C A39G it is 0.04. The figure for A14C A39U is 0.07; for A14C C15G it is 0.02; for A14C C15U it is 0.07. On to A14C C15A, for which the self-cleavage was found to be 0.08. The figure for C13U G27A is 0.17. The figure for C13U G27U is 0.17; for C13U G27C it is 0.06. The figure for C13G G33A is 0.11. Regarding C13G G33U, the self-cleavage was 0.03. Next, C13G G33C: 0.04; A14G C31A: 0.09.

As for A14G C31G, the self-cleavage was 0.04. With A14G C31U, the self-cleavage is 0.04. Next, C13U U43C: 0.1. The figure for C13U U43A is 0.1; for C13U U43G it is 2.25; for C13U C15A it is 0.08. The figure for C13U C15U is 0.13; for C13U C15G it is 0.08. For C13G U34A, the self-cleavage came out at 0.04. Next, C13G U34G: 0.03. Next, C13G U34C: 0.1. The figure for A14C C46G is 0.08; for A14C C46A it is 0.13; for A14C C46U it is 0.18. For A14G U38G, the self-cleavage was 0.01. Next, A14G U38C: 0.15; A14G U38A: 0.52; A14C G22U: 0.06. The figure for A14C G22C is 0.1; for A14C G22A it is 0.18.
